The source of these data is article PMC9482650, “Quantitative fragmentomics allow affinity mapping of interactomes” (Nature Communications, 2022).

What all share (test): holdup assay
What all share (parameters): key: below the threshold = too weak to quantify, mostly under pKd 3.1 to 4

One test addresses T1, SNTA1, Q13424.
T1 sequence (Q13424 82-180, limits assumed, looked up): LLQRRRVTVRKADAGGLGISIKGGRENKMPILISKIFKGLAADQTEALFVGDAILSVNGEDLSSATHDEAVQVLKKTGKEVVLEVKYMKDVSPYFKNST

A further test addresses AHNAK2, Q8IVF2. The conditions noted are these: plain residues with an end cap or a label only (N-terminal biotin on a linker: ttds).
Another test addresses T2, APBA3_2, O96018.
T2 sequence (O96018 480-570, limits assumed, looked up): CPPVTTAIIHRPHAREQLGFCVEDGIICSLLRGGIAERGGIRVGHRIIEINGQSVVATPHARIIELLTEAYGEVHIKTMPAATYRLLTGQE
The conditions noted are these: plain residues with an end cap or a label only (N-terminal biotin on a linker: ttds).

The target of another test is DLG2_1, Q15700. Particulars: plain residues with an end cap or a label only (N-terminal biotin on a linker: ttds).
For the next test, the target named is MAGI1_3, Q96QZ7. Particulars: plain residues with an end cap or a label only (N-terminal biotin on a linker: ttds).
Another test concerns the target MAGI3_3, Q5TCQ9. Particulars: plain residues with an end cap or a label only (N-terminal biotin on a linker: ttds).
For another test, the target named is MAST3, O60307. The conditions noted are these: plain residues with an end cap or a label only (N-terminal biotin on a linker: ttds).
The next test deals with T3, MPDZ_3, O75970.
T3 sequence (O75970 372-473, limits assumed, looked up): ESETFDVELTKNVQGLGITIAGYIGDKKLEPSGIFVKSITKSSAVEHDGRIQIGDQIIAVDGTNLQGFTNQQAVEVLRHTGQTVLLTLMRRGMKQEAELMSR
Particulars: plain residues with an end cap or a label only (N-terminal biotin on a linker: ttds).

A further test deals with T4, MPP5, Q8N3R9.
T4 sequence (Q8N3R9 251-346, limits assumed, looked up): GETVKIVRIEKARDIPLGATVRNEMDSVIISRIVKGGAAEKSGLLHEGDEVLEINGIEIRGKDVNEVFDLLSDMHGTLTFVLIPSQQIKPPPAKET
The conditions noted are these: plain residues with an end cap or a label only (N-terminal biotin on a linker: ttds).

The target in another test is NHERF2_1, Q15599. The conditions noted are these: plain residues with an end cap or a label only (N-terminal biotin on a linker: ttds).
The target in another test is T5, PARD6B, Q9BYG5.
T5 sequence (Q9BYG5 152-260, limits assumed, looked up): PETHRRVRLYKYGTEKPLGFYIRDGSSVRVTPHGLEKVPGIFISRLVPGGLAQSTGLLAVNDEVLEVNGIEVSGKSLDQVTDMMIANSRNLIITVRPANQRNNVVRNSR
Particulars: plain residues with an end cap or a label only (N-terminal biotin on a linker: ttds).

In another test the target is T6, PARD6G, Q9BYG4.
T6 sequence (Q9BYG4 153-261, limits assumed, looked up): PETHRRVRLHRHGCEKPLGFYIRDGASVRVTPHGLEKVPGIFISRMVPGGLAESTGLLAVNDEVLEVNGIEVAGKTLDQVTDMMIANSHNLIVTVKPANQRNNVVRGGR
Particulars: plain residues with an end cap or a label only (N-terminal biotin on a linker: ttds).

The target of the next test is T7, PDZD2_3, O15018.
T7 sequence (O15018 581-682, limits assumed, looked up): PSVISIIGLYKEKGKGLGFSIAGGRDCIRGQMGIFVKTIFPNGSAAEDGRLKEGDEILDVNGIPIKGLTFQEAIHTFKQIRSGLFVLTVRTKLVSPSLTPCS
Particulars: plain residues with an end cap or a label only (N-terminal biotin on a linker: ttds).

Another test deals with T8, PDZD7_2, Q9H5P4.
T8 sequence (Q9H5P4 205-303, limits assumed, looked up): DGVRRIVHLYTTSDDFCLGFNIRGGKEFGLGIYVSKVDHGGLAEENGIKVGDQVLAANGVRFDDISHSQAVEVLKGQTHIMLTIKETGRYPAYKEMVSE
The conditions noted are these: plain residues with an end cap or a label only (N-terminal biotin on a linker: ttds).

The target in a further test is T9, PDZD8, Q8NEN9.
T9 sequence (Q8NEN9 361-459, limits assumed, looked up): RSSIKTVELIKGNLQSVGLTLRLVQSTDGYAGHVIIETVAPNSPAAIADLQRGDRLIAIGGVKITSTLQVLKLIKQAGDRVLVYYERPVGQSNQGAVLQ
The conditions noted are these: plain residues with an end cap or a label only (N-terminal biotin on a linker: ttds).

Another test addresses PDZRN4_2, Q6ZMN7. Particulars: plain residues with an end cap or a label only (N-terminal biotin on a linker: ttds).
The next test concerns the target PREX1_1, Q8TCU6. Particulars: plain residues with an end cap or a label only (N-terminal biotin on a linker: ttds).
The target in another test is T10, PTPN13_5, Q12923.
T10 sequence (Q12923 1877-1975, limits assumed, looked up): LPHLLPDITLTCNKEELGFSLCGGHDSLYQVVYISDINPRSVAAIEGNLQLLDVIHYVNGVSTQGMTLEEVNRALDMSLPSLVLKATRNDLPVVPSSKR
The conditions noted are these: plain residues with an end cap or a label only (N-terminal biotin on a linker: ttds).

Another test has as its target SDCBP_1, O00560. Particulars: plain residues with an end cap or a label only (N-terminal biotin on a linker: ttds).
The next test deals with T11, SHANK2, Q9UPX8.
T11 sequence (Q9UPX8 621-730, limits assumed, looked up): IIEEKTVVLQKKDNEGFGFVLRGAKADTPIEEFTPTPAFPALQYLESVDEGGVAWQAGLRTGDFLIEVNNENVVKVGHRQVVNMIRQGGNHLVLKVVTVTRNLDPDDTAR
Particulars: plain residues with an end cap or a label only (N-terminal biotin on a linker: ttds).

Setting [1] is: plain residues with an end cap or a label only (N-terminal biotin on a linker: ahx).
[2] abbreviates: plain residues with an end cap or a label only (N-terminal biotin on a linker: ttds).
[3] abbreviates: plain residues with an end cap or a label only (N-terminal biotin on a linker: ado-ado).

NHERF2_1, Q15599, sequence (Q15599 9-91): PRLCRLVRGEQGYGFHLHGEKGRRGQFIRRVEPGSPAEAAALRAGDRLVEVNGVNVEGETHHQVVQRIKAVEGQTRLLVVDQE
AHNAK2, Q8IVF2, sequence (Q8IVF2 108-193): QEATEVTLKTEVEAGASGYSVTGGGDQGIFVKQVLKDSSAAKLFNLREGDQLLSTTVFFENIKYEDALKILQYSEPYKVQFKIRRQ
SDCBP_1, O00560, sequence (O00560 111-198): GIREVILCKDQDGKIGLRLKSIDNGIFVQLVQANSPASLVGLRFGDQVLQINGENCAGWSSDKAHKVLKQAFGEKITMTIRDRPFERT
MAGI1_3, Q96QZ7, sequence (Q96QZ7 638-725): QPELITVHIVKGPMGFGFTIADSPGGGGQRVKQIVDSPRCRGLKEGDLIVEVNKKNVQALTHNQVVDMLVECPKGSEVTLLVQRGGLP
PDZRN4_2, Q6ZMN7, sequence (Q6ZMN7 389-498): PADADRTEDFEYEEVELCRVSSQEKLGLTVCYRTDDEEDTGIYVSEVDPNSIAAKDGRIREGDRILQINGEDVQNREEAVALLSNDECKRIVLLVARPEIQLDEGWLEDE
PREX1_1, Q8TCU6, sequence (Q8TCU6 608-718): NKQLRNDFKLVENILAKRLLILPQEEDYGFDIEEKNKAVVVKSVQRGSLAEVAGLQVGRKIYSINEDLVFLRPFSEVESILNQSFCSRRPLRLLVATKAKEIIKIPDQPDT
MAST3, O60307, sequence (O60307 945-1048): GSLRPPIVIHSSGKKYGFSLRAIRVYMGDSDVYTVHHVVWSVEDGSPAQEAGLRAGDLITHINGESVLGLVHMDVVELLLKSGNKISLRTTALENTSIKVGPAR
MAGI3_3, Q5TCQ9, sequence (Q5TCQ9 572-655): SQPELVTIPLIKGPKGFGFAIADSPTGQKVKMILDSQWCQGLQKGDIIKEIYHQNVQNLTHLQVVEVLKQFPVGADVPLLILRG

One may read the pKd as −log10 of the Kd, conventionally taken in molar units. On to HSGSYLVTSV [APC, P25054], for which the pKd with SNTA1, Q13424 (setting [1]) worked out at 3.64.
As to QFQYAKESYI [TAGAP, Q8N103], the pKd in the test with SNTA1, Q13424 (setting [2]) worked out at 4.97.
Still for that read-out and setting: in the case of CNTVTVETVV [MAS1, P04201] it was 4.34; in that of PKRPFVESNV [TANC2, Q9HCD6], 4.33.
As to KTSAHHATFV [RGS12, O14924], in the test with SNTA1, Q13424 (setting [1]), the pKd was found to be 3.63.
LDSQIQETSI [MAP4, P27816] came in with a pKd in the test with SNTA1, Q13424 (setting [2]) of 4.8.
Regarding TIVSWPGTFL [LNX1, Q8TBB1], in the test with SNTA1, Q13424 (setting [1]), the pKd result is recorded as “below the threshold”.
For VNKVWDQSSV [CIT, O14578], in the test with SNTA1, Q13424 (setting [2]), the pKd result is given as “below the threshold”.
In the test with SNTA1, Q13424 (setting [3]), SVVSERISSV [HTR2C, P28335] registered a pKd of 4.59.
As for LHLHGTGIQV [EPHA7, Q15375], in the test with SNTA1, Q13424 (setting [3]), the pKd result is reported as “below the threshold”.
With KKNKDKEYYV [NRXN1, Q9ULB1], the pKd result with SNTA1, Q13424 (setting [1]) was “below the threshold”.
With GIFPTLTSPL [SHROOM3, Q8TF72], the pKd entry with SNTA1, Q13424 (setting [1]) is listed as “below the threshold”.
In turn, EEPEERHTEL [CES2, O00748] returned a pKd with SNTA1, Q13424 (setting [3]) of 4.68.
Consider SRRPRTETQV [HPV31-E6, P17386], for which the pKd with SNTA1, Q13424 (setting [2]) stood at 4.29.
In turn, GFGEERESIL [KIDINS220, Q9ULH0] yielded a pKd in the test with SNTA1, Q13424 (setting [3]) of 5.26.
For DEDQHTQITKV [PTEN, P60484], the negative-log Kd (pKd) entry with AHNAK2, Q8IVF2 was “below the threshold”; in the test with APBA3_2, O96018, “below the threshold”; with DLG2_1, Q15700 it was “below the threshold”; in the test with MAGI1_3, Q96QZ7, 4.5; with MAGI3_3, Q5TCQ9, “below the threshold”; in the test with MAST3, O60307 it was 3.59. For the same molecule, the pKd entry with MPDZ_3, O75970 was “below the threshold”; with MPP5, Q8N3R9 it was “below the threshold”; with NHERF2_1, Q15599 it was “below the threshold”; in the test with PARD6B, Q9BYG5 it was 4.25; with PARD6G, Q9BYG4, “below the threshold”; with PDZD2_3, O15018, “below the threshold”. Moreover, the pKd entry with PDZD7_2, Q9H5P4 is “below the threshold”; with PDZD8, Q8NEN9, “below the threshold”; with PDZRN4_2, Q6ZMN7, “below the threshold”; with PREX1_1, Q8TCU6, “below the threshold”; with PTPN13_5, Q12923, “below the threshold”; in the test with SDCBP_1, O00560, “below the threshold”. Besides, the pKd entry with SHANK2, Q9UPX8 was “below the threshold”; with SNTA1, Q13424 (setting [2]), 4.04.
Consider RNCSTNDSLL [ADRB2, P07550], for which the pKd result with SNTA1, Q13424 (setting [1]) is recorded as “below the threshold”.
In the case of ELIQDTSTSFSTTREW [ARAP3_int, Q8WWN8], the pKd result with SNTA1, Q13424 (plain residues with an end cap or a label only (N-terminal biotin on a linker: gsgsgs; C-terminal amide)) is “below the threshold”.
With FVHPILQSAV [PRKCA, P17252], the pKd with SNTA1, Q13424 (setting [3]) is 3.91.
RGGFGRQTQI [NCBP2L, A6PVI3] showed a pKd with SNTA1, Q13424 (setting [3]) of 4.2.
EDLTKNHDEL [RCN1, Q15293] showed a pKd with SNTA1, Q13424 (setting [3]) of 3.5.
On to SPLHSLETSL [ATP2B1, P20020], for which the pKd with SNTA1, Q13424 (setting [2]) stood at 4.5.
In turn, QKNKDKEYYV [NRXN3_rs746444206, Q9Y4C0] displayed a pKd with SNTA1, Q13424 (setting [3]) of 3.78.
Take EDEDEQVSAV [RAPGEF2, Q9Y4G8]: the pKd with SNTA1, Q13424 (setting [1]) is 3.61.
Turning to GGPKEEESPV [SLC16A1, P53985], the pKd result with SNTA1, Q13424 (setting [2]) was “below the threshold”.
On to LCKSHAFSHV [PDLIM7, Q9NR12;Q9NR12-1], for which, in the test with SNTA1, Q13424 (setting [1]), the pKd entry is given as “below the threshold”.
For QGRWDHETIV [TMEM215, Q68D42], the pKd in the test with SNTA1, Q13424 (setting [1]) turned out to be 5.28.
In turn, TETASVCTKV [SLC23A1, Q9UHI7] registered a pKd in the test with SNTA1, Q13424 (setting [3]) of 4.
Take GKKSVKHSKI [ACOT6, Q3I5F7]: in the test with SNTA1, Q13424 (setting [3]), the pKd was found to be 3.55.
TEEEVQDTRL [CFTR, P13569]: the pKd in the test with SNTA1, Q13424 (setting [2]) is 3.79.
Regarding DPRNTQTSQI [ABRAXAS2, Q15018], in the test with SNTA1, Q13424 (setting [2]), the pKd entry was “below the threshold”.
For SSSNSEDTEM [NHERF3, Q5T2W1], the pKd entry with SNTA1, Q13424 (setting [1]) is on record as “below the threshold”.
NQLAWFDTDL [CTNNB1, P35222]: the pKd result in the test with SNTA1, Q13424 (setting [2]) is given as “below the threshold”.
In the test with SNTA1, Q13424 (setting [2]), LCALPKVTTV [AGMAT, Q9BSE5] displayed a pKd of 4.81.
As for EKLSSIESDV [GRIN2B, Q13224], in the test with SNTA1, Q13424 (setting [1]), the pKd was 4.39.
